Changes are numbered by the printed parent chain.
Tests used:
[1] = target: recombinant human CD73-His extracellular domain recombinant protein (soluble dimer) (human) (UniProt P21589); experiment: ELISA, recombinant human CD73 coated at 5 µg/ml, antibody titrated
[2] = target: T1, human CD73 expressed at the cell surface (human, UniProt P21589 27-549); experiment: cell-based or functional assay
T1 sequence: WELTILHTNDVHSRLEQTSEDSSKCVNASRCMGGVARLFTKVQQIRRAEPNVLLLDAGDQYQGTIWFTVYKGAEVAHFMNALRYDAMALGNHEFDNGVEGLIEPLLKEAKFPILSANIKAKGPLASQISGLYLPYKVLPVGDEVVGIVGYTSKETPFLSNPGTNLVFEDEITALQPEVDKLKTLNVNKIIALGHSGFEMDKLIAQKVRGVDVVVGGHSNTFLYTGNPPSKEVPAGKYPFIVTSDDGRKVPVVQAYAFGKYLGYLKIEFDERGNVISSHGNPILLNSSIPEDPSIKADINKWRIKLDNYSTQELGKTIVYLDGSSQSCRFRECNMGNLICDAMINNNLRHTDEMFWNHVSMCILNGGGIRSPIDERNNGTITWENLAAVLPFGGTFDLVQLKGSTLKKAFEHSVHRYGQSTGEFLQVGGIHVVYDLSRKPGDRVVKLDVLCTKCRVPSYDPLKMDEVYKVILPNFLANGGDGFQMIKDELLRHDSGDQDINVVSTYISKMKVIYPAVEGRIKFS

[3] = target: T1, human CD73 expressed at the cell surface; experiment: cell-based or functional assay; remark: listed apart in the source
[4] = target: T1, human CD73 expressed at the cell surface; experiment: cell-based or functional assay; remark: listed apart in the source
[5] = target: T1, human CD73 expressed at the cell surface; experiment: cell-based or functional assay; remark: listed apart in the source
[6] = target: T2, recombinant human CD73-His extracellular domain recombinant protein (soluble dimer) (human, UniProt P21589 27-547, limits assumed); experiment: cell-based or functional assay
T2 sequence: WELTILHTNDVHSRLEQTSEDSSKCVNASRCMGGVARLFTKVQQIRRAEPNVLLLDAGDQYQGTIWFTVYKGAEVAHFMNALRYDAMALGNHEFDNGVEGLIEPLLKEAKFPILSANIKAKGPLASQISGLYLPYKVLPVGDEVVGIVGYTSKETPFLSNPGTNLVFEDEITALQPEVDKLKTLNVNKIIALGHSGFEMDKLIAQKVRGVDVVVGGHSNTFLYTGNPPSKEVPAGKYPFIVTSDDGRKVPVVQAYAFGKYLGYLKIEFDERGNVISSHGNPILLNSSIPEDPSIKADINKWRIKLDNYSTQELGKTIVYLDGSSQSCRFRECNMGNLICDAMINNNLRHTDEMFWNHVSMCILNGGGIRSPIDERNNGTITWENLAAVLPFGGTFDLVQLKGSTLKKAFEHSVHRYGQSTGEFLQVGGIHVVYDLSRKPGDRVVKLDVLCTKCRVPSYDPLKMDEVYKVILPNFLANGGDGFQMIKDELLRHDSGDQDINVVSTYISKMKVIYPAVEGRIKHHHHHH

Molecule: antibody 7G2 (Life Technologies Corp.)
- EC50 [1]: 0.037 µg/mL
- down-modulation of CD73 expression on MDA-MB-231 cells (10 µg/ml antibody, time course) [2]: > 50%

B1: antibody 11E1 (antibody, V domains shown)
VH: EIQLQQSGPELVKPGASVKVSCKASGYAFTSYNMYWVKQSHGKSLEWIGYIDPYNGGTSYNQKFKGKATLTVDKSSSTAYMHLNSLTSEDSAVYYCARGYGNYKAWFAYWGQGTLVTVSA
VL: DAVMTQTPKFLLVSAGDRVTITCKASQSVTNDVAWYQQKPGQSPKLLIYYASNRYTGVPDRFTGSGYGTDFTFTISTVQAEDLAVYFCQQDYSSLTFGAGTKLELK
- decrease of enzymatic activity of cellular CD73 (MDA-MB-231) [3]: > 75%
- EC50 for neutralization of enzymatic activity of cellular CD73 (MDA-MB-231 cells, free phosphate from AMP hydrolysis, Malachite Green) [4]: 0.195 µg/mL
- EC50 for neutralization of cellular CD73 enzymatic activity, mean over MDA-MB-231, H292 and A375 cells (N=8) [5]: 0.1 µg/mL
- EC70 for neutralization of cellular CD73 enzymatic activity, mean over MDA-MB-231, H292 and A375 cells (N=8) [5]: 0.15 µg/mL
- EC100 for neutralization of cellular CD73 enzymatic activity, mean over MDA-MB-231, H292 and A375 cells (N=8) [5]: 0.52 µg/mL
- EC50 for CD73 blockade (enzymatic activity of soluble recombinant human CD73-his, Cell Titer Glo luciferase read-out) [6]: 0.41 µg/mL

B2: antibody 8C7 (antibody, V domains shown)
VH: B1 VH with I2V, T30A, Y35N, E46D, T58S, Q62L, K63T, S77T
VL: SIVMTPTPKFLLVSAGDRVTITCKASQSVSNDVAWYQQKPGQSPKLLIYYASTRYTGVPDRFTGSGYGTDFTFTISTVQAEDLAVYFCQQDYSSLTFGAGTKLELKR
- decrease of enzymatic activity of cellular CD73 (MDA-MB-231) [3]: > 75%
- EC50 for neutralization of enzymatic activity of cellular CD73 (MDA-MB-231 cells, free phosphate from AMP hydrolysis, Malachite Green) [4]: 0.319 µg/mL
- EC50 for neutralization of cellular CD73 enzymatic activity, mean over MDA-MB-231, H292 and A375 cells (N=2) [5]: 0.21 µg/mL
- EC50 for CD73 blockade (enzymatic activity of soluble recombinant human CD73-his, Cell Titer Glo luciferase read-out) [6]: 1.29 µg/mL

B3: antibody 6E1 (antibody, V domains shown)
VH: B1 VH with I2F, S44R, T58S, S85N, G101N
VL: B1 VL with D1S, A2I, V78M
- decrease of enzymatic activity of cellular CD73 (MDA-MB-231) [3]: > 75%
- EC50 for neutralization of enzymatic activity of cellular CD73 (MDA-MB-231 cells, free phosphate from AMP hydrolysis, Malachite Green) [4]: 0.209 µg/mL
- EC50 for neutralization of cellular CD73 enzymatic activity, mean over MDA-MB-231, H292 and A375 cells (N=8) [5]: 0.13 µg/mL
- EC70 for neutralization of cellular CD73 enzymatic activity, mean over MDA-MB-231, H292 and A375 cells (N=8) [5]: 0.19 µg/mL
- EC100 for neutralization of cellular CD73 enzymatic activity, mean over MDA-MB-231, H292 and A375 cells (N=8) [5]: 0.68 µg/mL
- EC50 for CD73 blockade (enzymatic activity of soluble recombinant human CD73-his, Cell Titer Glo luciferase read-out) [6]: 0.33 µg/mL

B4: antibody 3C12 (antibody, V domains shown)
VH: B1 VH with E1Q, T30A, Y35N, E46D, T58S, Q62L, K63T, S77T
VL: B2 VL with S1D, I2V, P6Q
- decrease of enzymatic activity of cellular CD73 (MDA-MB-231) [3]: > 75%
- EC50 for neutralization of enzymatic activity of cellular CD73 (MDA-MB-231 cells, free phosphate from AMP hydrolysis, Malachite Green) [4]: 0.21 µg/mL
- EC50 for neutralization of cellular CD73 enzymatic activity, mean over MDA-MB-231, H292 and A375 cells (N=8) [5]: 0.14 µg/mL
- EC70 for neutralization of cellular CD73 enzymatic activity, mean over MDA-MB-231, H292 and A375 cells (N=8) [5]: 0.18 µg/mL
- EC100 for neutralization of cellular CD73 enzymatic activity, mean over MDA-MB-231, H292 and A375 cells (N=8) [5]: 0.3 µg/mL
- EC50 for CD73 blockade (enzymatic activity of soluble recombinant human CD73-his, Cell Titer Glo luciferase read-out) [6]: 0.41 µg/mL

Source: EP3259288B1 (Innate Pharma, dated 2026)
